Test results published in US20130203167A1 (SYRACUSE UNIVERSITY, published 2013).

biological target: full-length WDR5 (UniProt P61964 2-334); assay: method not stated; ITC with full-length WDR5 by the Methods

| Binder | Kd |
| --- | --- |
| Ac-LNPHGAARAEVYLR-NH2 [Win motif peptide LNPHGAARAEVYLR (SEQ ID NO. 31)] | 52 nM |
| Ac-EHVTGCARSEGFYT-NH2 [Win motif peptide EHVTGCARSEGFYT (SEQ ID NO. 33)] | 116 nM |
| Ac-EHQTGSARSEGYYP-NH2 [Win motif peptide EHQTGSARSEGYYP (SEQ ID NO. 32)] | 415 nM |
| Ac-INPTGCARSEPKIL-NH2 [Win motif peptide INPTGCARSEPKIL (SEQ ID NO. 29)] | 78 nM |
| Ac-VNPTGCARSEPKMS-NH2 [Win motif peptide VNPTGCARSEPKMS (SEQ ID NO. 30)] | 47 nM |
